From US20100278834A1 come the findings set out here.

Assay [1] deals with H5 hemagglutinin (HA) of H5N1 influenza A virus, strain not stated (influenza A virus (H5N1), strain not stated). The assay is described as follows: cross-inhibition of binding to HA; competitor: FLA3.14.
Assay [2] shares this target. Put plainly: cross-inhibition of binding to HA; competitor: FLD194.
Assay [3] shares this target. Put plainly: cross-inhibition of binding to HA; competitor: FLD20.19.
In assay [4] the target is hemagglutinin of H5N1 clade 2.2 strain WS/Mong/244/05 (influenza A virus WS/Mong/244/05 (H5N1)). Put plainly: cell-based or functional assay.
In assay [5] the target is hemagglutinin of H5N1 clade 1 strain A/Hong Kong/213/03 (influenza A virus A/Hong Kong/213/03 (H5N1)). The assay is described as follows: cell-based or functional assay.
Assay [6] has as its target hemagglutinin of H5N1 clade 1 strain HK/491/97 (influenza A virus HK/491/97 (H5N1)). The assay is described as follows: cell-based or functional assay.
Assay [7] addresses hemagglutinin of A/Vietnam/1203/04 (H5N1) (influenza A virus A/Vietnam/1203/04 (H5N1)). The assay is described as follows: cell-based or functional assay.
Assay [8] has as its target hemagglutinin of H5N1 clade 2.3 strain Anhui/1/05 (influenza A virus Anhui/1/05 (H5N1)). The assay is described as follows: cell-based or functional assay.
The target in assay [9] is hemagglutinin of A/Indonesia/5/05 (H5N1, clade 2) (influenza A virus A/Indonesia/5/05 (H5N1)). The assay is described as follows: cell-based or functional assay.
The target in assay [10] is hemagglutinin of H5N1 clade 2.2 strain TY/TY/1/05 (influenza A virus TY/TY/1/05 (H5N1)). Put plainly: cell-based or functional assay.
Assay [11] deals with hemagglutinin of H5N1 clade 1 strain VN/1194.04 (influenza A virus VN/1194.04 (H5N1)). Put plainly: cell-based or functional assay.

B1: FLD20.19 (antibody, V domains shown)
VH: QVQLVQSGAEVKKPGSSVTVSCKASGGTFSNYGISWVRQAPGQGLDWMGGIIPLFGTANYAQKFQGRVTITADESTSSSNMELSSLRSEDTAVYYCARDVHNYDFLTGYPLHLYGMDVWGQGTTVTVSS
VL: DIQMTQSPSSLSASVGDRVTITCRASQSISTYLNWYQQKPGIPPKLLINVASSLQSGVPSRFSGSGSGTDFTLTISSLQPEDFASYYCQQTYSSPPTFGQGTKVEIK
On to B1, for which the Inhibition of binding (%) in assay [1] was 0%; in assay [2], 0%; in assay [3] it was 100%. The IC50, neutralisation of retroviral pseudotypes stood at 4 ng/mL in [4]; 10 ng/mL in assay [5]; 16 ng/mL in assay [7]; 104 ng/mL in assay [8]; 77 ng/mL in [9]; 10 ng/mL in assay [10]. This molecule came in with an IC50, neutralisation of retroviral pseudotypes in [11] of 13 ng/mL. The results for the Reciprocal neutralising titre of culture supernatant (reciprocal titre) in assay [6], in assay [7] and in assay [9] were 181, 181 and 813, respectively.
